For assay [1], the target named is melanocortin 4 receptor (MC4R) (Homo sapiens) (UniProt P32245). The experiment in a line: cell-based or functional assay.
For assay [2] the target is unchanged. In words: competitive binding assay (range of obtained IC50 values); competitor [125I]-NDP-alpha-MSH.

UniProt P32245, sequence (P32245 whole entry V103I): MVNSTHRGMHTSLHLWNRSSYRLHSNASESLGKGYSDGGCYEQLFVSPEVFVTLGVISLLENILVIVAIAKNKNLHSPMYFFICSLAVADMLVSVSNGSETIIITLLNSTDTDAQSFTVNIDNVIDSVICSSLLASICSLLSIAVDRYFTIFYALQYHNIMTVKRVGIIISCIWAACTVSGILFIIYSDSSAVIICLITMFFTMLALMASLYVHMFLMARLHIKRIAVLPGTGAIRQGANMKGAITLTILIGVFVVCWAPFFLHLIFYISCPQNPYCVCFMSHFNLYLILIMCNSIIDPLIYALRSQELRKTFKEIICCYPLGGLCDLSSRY

What is called IC50 is the concentration at which inhibition is half-maximal. In assay [1], melanotan II (MTII) (peptide) displayed an EC50, cAMP production, CHOK1 Clone 1 (high MC4R expression) of 0.52 nM and an EC50, cAMP production, CHOK1 Clone 2 (low MC4R expression) of 0.52 nM. For the same substance, in assay [2], the half-maximal inhibitory concentration (IC50) fell in the range of 5 to 30 nM.

These data come from patent publication US20060105951A1.
